Data reported in patent US20200407442A1.
Substitutions are numbered along the chain they refer to. Like-named read-outs stand apart in the source and are kept apart here.

B1: 3.40.19-uAb-IgG4L (antibody, V domains shown)
VH: QLQLQESGPGLVKPSETLSLTCTVSGDSISSTSYYWGWIRQPPGKGLEWIGSFYYSGSTYYNPSLKSRVTISVDTSKNQFSLKLNSVTAADTAVYYCARMQLWSYDVDVWGQGTTVTVSS
VL: QSALTQPASVSGSPGQSITISCTGTSSDVGGYDYVAWYQQHPGKVPKLMIYDVSERPSGVSNRFSGSKSGNTASLTISGLQAEDEADYYCSSYTSTTTLVVFGGGTKLSVL
B2: BMK7 (antibody, INN chains, looked up, V domains shown)
VH: QVQLVESGGGVVQPGRSLRLSCVASGFTFSSYGMHWVRQAPGKGLEWVAIIWYDGSNKYYADSVKGRFTISRDNSKNTQYLQMNSLRAEDTAVYYCASVATSGDFDYYGMDVWGQGTTVTVSS
VL: EIVLTQSPATLSLSPGERTTLSCRASQRISTYLAWYQQKPGQAPRLLIYDASKRATGIPARFSGSGSGTGFTLTISSLEPEDFAVYYCQQRSNWPLTFGGGTKVEIK
B3: 1.53.3-uAb-IgG4k (antibody, V domains shown)
VH: QVQLQQWGAGLLKPSETLSLTCGVYGGSFSGYYWSWIRQPPGMGLEWIGEINHRGNTNYNPSLKSRVTISEDTSKNQFSLRLSSVTAADTAVYFCTRGEDYSDYDYYGDFWGQGTLVTVSS
VL: B2 VL with P15Q, T19A, R28S, T31S, D50A, K53N, G70D, V85I

Tests used:
[1] = molecular target: full-length cynomolgus LAG-3 on cells (cynomolgus); assay: FACS on cynomolgus LAG-3-expressing 293F cells (target not labelled in the table)
Target sequence in this assay (P18627 other isoform, or with tags, fused parts or gaps limits assumed, form in doubt): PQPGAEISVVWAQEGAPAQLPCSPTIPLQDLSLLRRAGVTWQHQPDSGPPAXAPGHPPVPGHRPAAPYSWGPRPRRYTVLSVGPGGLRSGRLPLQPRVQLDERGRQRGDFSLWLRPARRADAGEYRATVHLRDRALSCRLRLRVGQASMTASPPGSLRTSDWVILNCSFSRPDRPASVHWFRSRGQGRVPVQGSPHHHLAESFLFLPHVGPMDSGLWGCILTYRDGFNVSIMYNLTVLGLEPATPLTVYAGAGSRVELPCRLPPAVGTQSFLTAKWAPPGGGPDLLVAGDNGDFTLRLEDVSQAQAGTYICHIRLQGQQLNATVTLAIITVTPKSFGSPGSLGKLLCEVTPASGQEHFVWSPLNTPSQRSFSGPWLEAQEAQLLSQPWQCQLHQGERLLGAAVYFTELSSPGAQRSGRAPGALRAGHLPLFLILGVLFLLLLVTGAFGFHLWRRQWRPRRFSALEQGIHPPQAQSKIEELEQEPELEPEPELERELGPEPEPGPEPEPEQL

[2] = molecular target: mFc-tagged LAG-3 protein (human) (UniProt P18627); assay: FACS competition: blocks mFc-tagged LAG-3 binding to MHC-II on Raji cells
Chain of mFc-tagged LAG-3 protein (human) (P18627 30-450): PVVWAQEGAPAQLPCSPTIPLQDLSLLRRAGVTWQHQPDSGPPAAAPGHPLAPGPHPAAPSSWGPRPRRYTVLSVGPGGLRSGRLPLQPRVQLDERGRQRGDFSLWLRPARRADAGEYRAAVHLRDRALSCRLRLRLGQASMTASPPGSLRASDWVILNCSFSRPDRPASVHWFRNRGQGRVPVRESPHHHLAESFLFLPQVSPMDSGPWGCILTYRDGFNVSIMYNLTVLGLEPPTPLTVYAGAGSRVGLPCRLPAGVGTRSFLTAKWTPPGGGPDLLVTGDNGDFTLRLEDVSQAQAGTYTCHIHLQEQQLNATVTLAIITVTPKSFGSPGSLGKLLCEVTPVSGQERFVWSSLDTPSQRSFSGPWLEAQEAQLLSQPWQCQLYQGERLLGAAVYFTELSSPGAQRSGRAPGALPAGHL

[3] = molecular target: mFc-tagged LAG-3 protein (human) (UniProt P18627); assay: ELISA competition: blocks mFc-tagged LAG-3 binding to coated Galectin-3
[4] = molecular target: mFc-tagged LAG-3 protein (human) (UniProt P18627); assay: ELISA competition: blocks mFc-tagged LAG-3 binding to coated LSECtin
[5] = molecular target: human LAG-3 protein (SPR analyte) (human) (UniProt P18627); assay: SPR Biacore 8K, antibody captured by anti-human Fc, LAG-3 as analyte
Chain of human LAG-3 protein (SPR analyte) (human) (P18627 30-450 limits assumed): as the sequence (P18627 30-450) above

[6] = molecular target: full-length cynomolgus LAG-3 on cells (cynomolgus); assay: FACS on cynomolgus LAG-3-expressing 293F cells (target not labelled in the table); remark: listed apart in the source
Target sequence in this assay (P18627 other isoform, or with tags, fused parts or gaps limits assumed, form in doubt): as the sequence (P18627 other isoform, or with tags, fused parts or gaps limits assumed, form in doubt) above

[7] = molecular target: full-length human LAG-3 on cells (human) (UniProt P18627); assay: cell-based or functional assay
Chain of full-length human LAG-3 on cells (human) (P18627 23-525 limits assumed): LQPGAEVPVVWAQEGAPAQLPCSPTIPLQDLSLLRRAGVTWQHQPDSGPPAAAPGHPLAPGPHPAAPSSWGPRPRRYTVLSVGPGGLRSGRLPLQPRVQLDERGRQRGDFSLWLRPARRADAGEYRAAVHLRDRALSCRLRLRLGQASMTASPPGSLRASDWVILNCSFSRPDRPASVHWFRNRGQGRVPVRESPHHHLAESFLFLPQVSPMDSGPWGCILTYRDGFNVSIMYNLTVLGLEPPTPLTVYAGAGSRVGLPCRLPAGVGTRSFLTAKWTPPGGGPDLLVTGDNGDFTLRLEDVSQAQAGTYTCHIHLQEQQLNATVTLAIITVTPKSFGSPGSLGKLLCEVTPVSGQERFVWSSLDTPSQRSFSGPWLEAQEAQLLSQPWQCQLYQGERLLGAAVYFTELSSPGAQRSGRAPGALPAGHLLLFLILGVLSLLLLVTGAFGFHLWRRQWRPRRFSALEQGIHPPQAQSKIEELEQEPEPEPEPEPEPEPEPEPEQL

[8] = molecular target: full-length human LAG-3 on cells (human) (UniProt P18627); assay: FACS affinity on Flp-In-293 cells expressing human LAG-3
[9] = molecular target: full-length human LAG-3 on cells (human) (UniProt P18627); assay: FACS on human LAG-3 transfectant cells

Binder	EC50 [1] [nM]	EC50 [2] [nM]	EC50 [3] [nM]	EC50 [4] [nM]	Kd [5] [nM]	koff [5] [s⁻¹]	kon [5] [M⁻¹ s⁻¹]	EC50 [6] [nM]	EC50, IL-2 luciferase reporter gene assay (Jurkat cells expressing human LAG-3 with Raji cells and SEE) [7] [nM]	Kd [8] [nM]	EC50 [9] [nM]
B1	3.92										
B2		1.25	0.79	0.59	0.497	0.000106	213000	2.65	2.65	0.58	0.61
B3	4.01										
